{"source": "paper PMC3395577", "proteins": {"B1": {"name": "BGL (β-glucosidase, Tthe_1813) (Thermoanaerobacterium thermosaccharolyticum DSM 571) (protein)", "chain": "MSDFNKDFLFGVATASYQVEGAYNEDGRSMSIWDTFCRQDGKVYKGHNGDVACDHYHLYKDDVKMMKDLGIEAYRFSIAWPRIFPEKGHYNPKGIDFYKRLTDELLKNDIKPFVTIYHWDLPQWADDLGGWLNREVVDWFGEYVSKLFNELGGYIRNWITLNEPWCSSFLSYFIGEHAPGHKDLGEAVLVSHNLLLAHGKAVEIFRDINSSDSKIGITLNLNEVFPATDSPEDKAAARIADGFQNRWFLDPIFKGEYPKDMLELFGKYAKTDFITDGDLKRISQKLDFLGVNYYTRAVVKKGNDGILNAEQIDVDNEKTEMGWEVYPESLYNILMRLKNEYTFDLPLYITENGAAYKDVVSDDGHVHDEKRVEFLKKHFKQAKRFIDDGGNLRGYFVWSLMDNFEWAHGYSKRFGIVYVDYETEKRILKDSALWYKNLISTRTI"}}, "substrate": "O=[N+]([O-])c1ccc(O[C@@H]2O[C@H](CO)[C@@H](O)[C@H](O)[C@H]2O)cc1", "test": "purified protein", "conditions": "50 mM imidazole-potassium buffer pH 6.4, 70°C, Table 2 prints 0.63"}
{"protein": "B1", "values": [{"measurement": "Km", "value": 620, "unit": "µM"}]}
